For the test, the target named is T1, recombinant human TNFα (human, UniProt P01375 77-233).
T1 construct: Bought protein
Put plainly: ELISA on human TNFα, after MMP2 cleavage. The protocol: In this assay, 1 μg/mL recombinant human TNFα (R&D systems) was coated on an ELISA plate. Increasing concentrations of anti-TNFα shielded antibodies were applied on the plate and their binding to the recombinant human TNFα was detected by HRP-conjugated anti-human secondary antibody.

T1 sequence (P01375 77-233 limits assumed): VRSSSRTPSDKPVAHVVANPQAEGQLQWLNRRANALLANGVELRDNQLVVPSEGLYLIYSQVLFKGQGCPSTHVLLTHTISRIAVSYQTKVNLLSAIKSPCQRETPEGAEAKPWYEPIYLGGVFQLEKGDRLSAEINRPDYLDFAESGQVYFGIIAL

B1: TAVO271272 after digestion by MMP2 (antibody)
heavy: EVQLVESGGGLVQPGGSLRLSCAASGFDFADYAMHWVRQAPGKGLEWVSAITWNGGHTDYADSVKGRFTISRDNSKNTLYLQMNSLRAEDTAVYYCAKVSYLSTASSLDYWGQGTLVTVSSASTKGPSVFPLAPSSKSTSGGTAALGCLVKDYFPEPVTVSWNSGALTSGVHTFPAVLQSSGLYSLSSVVTVPSSSLGTQTYICNVNHKPSNTKVDKKVEPKSCDKTHTCPPCPAPPAAGPSVFLFPPKPKDTLMISRTPEVTCVVVDVSHEDPEVKFNWYVDGVEVHNAKTKPREEQYNSTYRVVSVLTVLHQDWLNGKEYKCKVSNKALPAPIEKTISKAKGQPREPQVYTLPPSRDELTKNQVSLTCLVKGFYPSDIAVEWESNGQPENNYKTTPPVLDSDGSFLLYSKLTVDKSRWQQGNVFSCSVLHEALHSHYTQKSLSLSPGK
light: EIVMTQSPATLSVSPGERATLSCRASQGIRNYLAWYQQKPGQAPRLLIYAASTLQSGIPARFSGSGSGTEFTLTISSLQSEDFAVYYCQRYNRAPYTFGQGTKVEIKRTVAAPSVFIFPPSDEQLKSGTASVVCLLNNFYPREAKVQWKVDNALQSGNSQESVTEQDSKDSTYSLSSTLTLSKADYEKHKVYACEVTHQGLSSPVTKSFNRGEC
notes: the antibody part is that of TAVO167127 (EAC271/EAC272 are identical to EAC190/EAC191 but for the IGF2 mutations); not shown: remnant of the protease-cleavable linker left after cleavage
With B1, the binding result is reported as “binds”.

(Values after patent US20220119549A1 (TAVOTEK BIOTHERAPEUTICS HONG KONG, published 2022).)
